Measured values from patent US20120231005A1 (Merck Sharp & Dohme, published 2012).
Positions count from the first letter of the chain named.

Tests used:
rhesus PCSK9 (rhesus) [1] = assay: SPR (Biacore); IgG captured on anti-human IgG, PCSK9 injected
human PCSK9 [2] = target: T1, human PCSK9 (human, UniProt Q8NBP7 31-692, limits assumed); assay: cell-based or functional assay
rhesus PCSK9 (rhesus) [3] = assay: cell-based or functional assay
human PCSK9 [4] = target: T1, human PCSK9; assay: SPR (Biacore); IgG captured on anti-human IgG, PCSK9 injected
Protocol: (§1) The affinities of those IgG molecules were also measured by Biacore assay. Briefly, anti-human IgG monoclonal antibody form Human Antibody Capture Kit provided by Biacore was immobilized on CM5 chips at a level of 8000 to 10000 RU. […] After each round injection, the sensor chip surface was regenerated by 30 second injection of 3M Magnesium Chloride.

human PCSK9 [5] = target: T1, human PCSK9; assay: SPR (Biacore); Fab captured on anti-Fab IgG, PCSK9 injected; 1:1 Langmuir fit
Protocol: First, goat anti-Fab IgGs were immobilized onto CM5 chip by amine coupling as described above. The anti-Fab IgGs were diluted to 200 μg/ml in pH 5/10 mM Acetate solution, and injected onto the NHS/EDC activated surface to achieve an immobilization level of ˜10,000 RU, followed with surface inactivation by injection of Ethanolamine. […] The sensor chip surface was regenerated by 30 second injection of 100 mM phosphoric acid. The binding sensorgrams were fitted with 1:1 Langmuir binding model to determine the binding affinity.

human PCSK9 [6] = target: T1, human PCSK9; assay: TR-FRET; antibody titrated against 10 nM AF647-PCSK9 and about 4 nM Eu-LDLR ectodomain
Protocol: After at least 90 minutes of equilibration, samples were read in a Rubystar reader (BMG Corp.) using 20 flashes per well, a 50 μsec integration delay, and a 200 μsec total integration time.

human FcRn = target: T2, human FcRn (human, UniProt P55899 24-297; P61769 21-119, limits assumed); assay: Biacore; human FcRn immobilised, 100 nM mAb bound at pH 6.0, read 5 s into dissociation at pH 7.3
T2 construct: Beta-2-microglobulin is not mentioned for the purified protein; also called human FeRn
Protocol: The neutral pH dissociation of mAbs from human FeRn was measured by SPR using a Biacore T-100 instrument. Briefly, purified FeRn protein was immobilized onto a Biacore CM5 biosensor chip and PBSP (50 mM NaPO4, 150 mM NaCl and 0.05% (v/v) Surfactant 20) pH 7.3 was used as running buffer. The mAbs were diluted with PBSP pH 6.0 to 100 nM, allowed to bind FcRn for 3 minutes to reach equilibrium and followed by 1 minute of dissociation in pH 7.3 running buffer. A report point (Stability) was inserted at 5 seconds after the end of mAb binding and the “% bound” was calculated as RUStability/RUBinding (%).

rhesus PCSK9 (rhesus) [7] = assay: affinity table, IgG2 (Biacore)
mouse PCSK9 = target: T3, mouse PCSK9 (mouse, UniProt Q80W65 35-694, limits assumed); assay: affinity table, IgG2 (Biacore)
T3 construct: also called Mouse PCSK9 9
Protocol: as §1

human PCSK9 [8] = target: T1, human PCSK9; assay: affinity table, IgG2 (Biacore)
Protocol: as §1

T1 sequence (Q8NBP7 31-692 limits assumed): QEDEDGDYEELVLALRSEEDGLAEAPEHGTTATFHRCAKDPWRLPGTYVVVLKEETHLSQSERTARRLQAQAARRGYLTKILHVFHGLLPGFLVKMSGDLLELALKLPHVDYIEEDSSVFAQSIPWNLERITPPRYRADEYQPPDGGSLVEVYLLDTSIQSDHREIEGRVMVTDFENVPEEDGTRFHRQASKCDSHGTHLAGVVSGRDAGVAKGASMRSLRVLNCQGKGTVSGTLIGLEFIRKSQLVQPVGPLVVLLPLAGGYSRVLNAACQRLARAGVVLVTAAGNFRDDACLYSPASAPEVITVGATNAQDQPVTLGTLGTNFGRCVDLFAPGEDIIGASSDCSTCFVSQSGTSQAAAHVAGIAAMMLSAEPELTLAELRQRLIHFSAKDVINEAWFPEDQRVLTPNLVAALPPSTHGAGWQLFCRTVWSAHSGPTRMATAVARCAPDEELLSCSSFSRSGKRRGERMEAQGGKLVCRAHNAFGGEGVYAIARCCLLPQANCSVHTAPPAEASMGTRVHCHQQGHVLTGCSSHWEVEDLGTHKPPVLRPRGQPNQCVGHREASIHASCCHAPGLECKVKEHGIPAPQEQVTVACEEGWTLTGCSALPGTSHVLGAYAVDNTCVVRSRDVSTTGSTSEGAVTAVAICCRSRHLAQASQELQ
T2 sequence (P55899 24-297 limits assumed, form in doubt, chain 1 of 2): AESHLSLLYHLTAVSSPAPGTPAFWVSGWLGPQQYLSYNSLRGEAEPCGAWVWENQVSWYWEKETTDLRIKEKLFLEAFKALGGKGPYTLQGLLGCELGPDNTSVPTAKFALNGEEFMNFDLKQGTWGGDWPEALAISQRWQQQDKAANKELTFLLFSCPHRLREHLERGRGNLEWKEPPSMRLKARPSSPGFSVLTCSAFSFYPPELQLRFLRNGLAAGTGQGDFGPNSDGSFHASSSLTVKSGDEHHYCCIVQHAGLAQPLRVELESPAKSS
T2 sequence (P61769 21-119 limits assumed, form in doubt, chain 2 of 2): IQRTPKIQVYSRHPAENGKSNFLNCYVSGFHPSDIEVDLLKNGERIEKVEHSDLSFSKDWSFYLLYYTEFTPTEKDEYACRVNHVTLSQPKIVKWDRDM
T3 sequence (Q80W65 35-694 limits assumed): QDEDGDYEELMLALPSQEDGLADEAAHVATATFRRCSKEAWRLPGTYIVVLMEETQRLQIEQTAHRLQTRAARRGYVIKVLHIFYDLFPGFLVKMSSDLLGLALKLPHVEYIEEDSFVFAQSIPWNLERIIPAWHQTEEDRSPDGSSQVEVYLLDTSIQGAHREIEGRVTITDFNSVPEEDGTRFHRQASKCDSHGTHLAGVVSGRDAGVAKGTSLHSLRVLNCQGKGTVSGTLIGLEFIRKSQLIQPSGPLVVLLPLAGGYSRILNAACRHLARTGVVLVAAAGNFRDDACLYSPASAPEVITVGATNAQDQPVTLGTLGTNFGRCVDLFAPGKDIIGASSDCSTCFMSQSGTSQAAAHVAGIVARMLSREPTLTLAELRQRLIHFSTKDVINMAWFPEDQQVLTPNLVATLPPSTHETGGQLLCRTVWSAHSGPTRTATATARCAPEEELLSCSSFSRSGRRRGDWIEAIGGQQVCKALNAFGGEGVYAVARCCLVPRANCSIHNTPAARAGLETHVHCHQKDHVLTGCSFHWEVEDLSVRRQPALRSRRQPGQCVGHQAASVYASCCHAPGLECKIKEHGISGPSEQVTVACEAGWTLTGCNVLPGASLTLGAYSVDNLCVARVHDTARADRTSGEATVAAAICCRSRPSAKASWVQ

B1: AX188 IgG2 (antibody, V domains shown)
VH: EVQLLESGGGLVQPGGSLRLSCKASGYTFSSYWMHWVRQAPGKGLEWIGRIDPYNGGTKYNEKFKGKATISRDNSKNTLYLQMNSLRAEDTAVYYCARYGYYLGSYAMDYWGQGTLVTVSS
VL: DIQMTQSPSSLSASVGDRVTITCRASQSVSRYLAWYQQKPGKAPKLLIYAASSLQSGVPSRFSGSGSGTDFTLTISSLQPEDFATYYCEAYDYSSGPWVFGGGTKVEIKR
notes: IgG2
Kd (rhesus PCSK9 (rhesus) [1]): 0.454 nM
IgG IC50 (nM), inhibition of PCSK9 on LDL uptake (Exopolar assay) (human PCSK9 [2]): 24.8 nM
IgG IC50 (nM), inhibition of PCSK9 on LDL uptake (Exopolar assay) (rhesus PCSK9 (rhesus) [3]): 18.7 nM
Kd (human PCSK9 [4]): 0.873 nM

B2: AX9 Fab (Fab, V domains shown)
VH: B1 VH
VL: B1 VL with S28D, R31K, E89Q, A90V, Y93S, S95P, G96N, P97A, W98Y
Fab IC50 (nM), inhibition of PCSK9 on LDL uptake (Exopolar assay) (human PCSK9 [2]): 287 nM
Kd (human PCSK9 [5]): 23.9 nM

B3: AX1 Fab (Fab, V domains shown)
VH: EVQLLESGGGLVQPGGSLRLSCKASGFTFTSYYMHWVRQAPGKGLEWIGRINPDSGSTKYNEKFKGRATISRDNSKNTLYLQMNSLRAEDTAVYYCARGGRLSWDFDVWGQGTLVTVSS
VL: B1 VL with S28D, V29I, E89A, S95L, P97G, W98Y, G102D
notes: Soluble Fab from E. coli TG1 periplasm; Tags encoded by the display vector are not described for the protein
Fab IC50 (nM), inhibition of PCSK9 on LDL uptake (Exopolar assay) (human PCSK9 [2]): 146 nM
Kd (human PCSK9 [5]): 6 nM

B4: AX422 Fab (Fab, V domains shown)
VH: B1 VH with N55S
VL: DIQMTQSPSSLSASVGDRVTITCRASQDVSRYLTWYQQKPGKAPKLLIYAASSLQSGVPSRFSGSGSGTDFTLTISSLQPEDFATYYCQAYDYSLSGYVFGGGTKVEIK
notes: also called AX189_VH 55N to S
Kd (human PCSK9 [5]): 4.1 nM

B5: AX198 Fab (Fab, V domains shown)
VH: B1 VH
VL: B4 VL with D28A, R31S, T34N, Q89E, S96G, Y98W
Kd (human PCSK9 [5]): 4.3 nM

B6: AX191 IgG2 (antibody)
heavy: EVQLLESGGGLVQPGGSLRLSCKASGYTFSSYWMHWVRQAPGKGLEWIGRIDPYNGGTKYNEKFKGKATISRDNSKNTLYLQMNSLRAEDTAVYYCARYGYYLGSYAMDYWGQGTLVTVSSASTKGPSVFPLAPCSRSTSESTAALGCLVKDYFPEPVTVSWNSGALTSGVHTFPAVLQSSGLYSLSSVVTVPSSNFGTQTYTCNVDHKPSNTKVDKTVERKCCVECPPCPAPPVAGPSVFLFPPKPKDTLMISRTPEVTCVVVDVSHEDPEVQFNWYVDGVEVHNAKTKPREEQFNSTFRVVSVLTVVHQDWLNGKEYKCKVSNKGLPAPIEKTISKTKGQPREPQVYTLPPSREEMTKNQVSLTCLVKGFYPSDIAVEWESNGQPENNYKTTPPMLDSDGSFFLYSKLTVDKSRWQQGNVFSCSVMHEALHNHYTQKSLSLSPGK
light: DIQMTQSPSSLSASVGDRVTITCRASQDISKYLAWYQQKPGKAPKLLIYAASSLQSGVPSRFSGSGSGTDFTLTISSLQPEDFATYYCQAYDYSSSAYVFGGGTKVEIKRTVAAPSVFIFPPSDEQLKSGTASVVCLLNNFYPREAKVQWKVDNALQSGNSQESVTEQDSKDSTYSLSSTLTLSKADYEKHKVYACEVTHQGLSSPVTKSFNRGEC
notes: IgG2
Kd (rhesus PCSK9 (rhesus) [1]): 0.625 nM
IC50 (human PCSK9 [6]): 3 nM
IgG IC50 (nM), inhibition of PCSK9 on LDL uptake (Exopolar assay) (human PCSK9 [2]): 8.7 nM
IgG IC50 (nM), inhibition of PCSK9 on LDL uptake (Exopolar assay) (rhesus PCSK9 (rhesus) [3]): 6.6 nM
% bound (RUStability/RUBinding) (human FcRn): 1.1%
Kd (human PCSK9 [4]): 0.846 nM

B7: AX195 Fab (Fab, V domains shown)
VH: B1 VH
VL: B4 VL with D28A, R31K, T34A, S96G, G97D
Kd (human PCSK9 [5]): 9.9 nM

B8: AX197 Fab (Fab, V domains shown)
VH: B1 VH
VL: B4 VL with D28A, V29I, T34A, S96G, G97H
Kd (human PCSK9 [5]): 5.6 nM

B9: AX422 IgG2 (antibody, V domains shown)
VH: B1 VH with N55S
VL: B1 VL with S28D, A34T, E89Q, S95L, G96S, P97G, W98Y
notes: also called AX422 (55N to S)
Kd (rhesus PCSK9 (rhesus) [1]): 1.96 nM
IgG IC50 (nM), inhibition of PCSK9 on LDL uptake (Exopolar assay) (human PCSK9 [2]): 5 nM
Kd (human PCSK9 [4]): 2.12 nM

B10: AX199 Fab (Fab, V domains shown)
VH: B1 VH
VL: B4 VL with D28S, R31N, T34H, S96G, G97P
Kd (human PCSK9 [5]): 26.2 nM

B11: AX425 Fab (Fab, V domains shown)
VH: B1 VH with N55D
VL: B4 VL
notes: also called AX189_VH 55N to D
Kd (human PCSK9 [5]): 17.6 nM

B12: AX423 Fab (Fab, V domains shown)
VH: B1 VH with G56T
VL: B4 VL
notes: also called AX189_VH 56G to T
Kd (human PCSK9 [5]): 32.8 nM

B13: AX424 Fab (Fab, V domains shown)
VH: B1 VH with N55T
VL: B4 VL
notes: also called AX189_VH 55N to T
Kd (human PCSK9 [5]): 4.2 nM

B14: AX424 IgG2 (antibody, V domains shown)
VH: B1 VH with N55T
VL: B1 VL with S28D, A34T, E89Q, S95L, G96S, P97G, W98Y
notes: also called AX424 (55N to T)
Kd (rhesus PCSK9 (rhesus) [1]): 2.36 nM
IgG IC50 (nM), inhibition of PCSK9 on LDL uptake (Exopolar assay) (human PCSK9 [2]): 6 nM
Kd (human PCSK9 [4]): 2.16 nM

B15: AX200 Fab (Fab, V domains shown)
VH: B1 VH
VL: B4 VL with R31K, T34A, Q89E, G97H
Kd (human PCSK9 [5]): 9.6 nM

B16: AX191 Fab (Fab, V domains shown)
VH: B1 VH
VL: B4 VL with V29I, R31K, T34A, L95S, G97A
Fab IC50 (nM), inhibition of PCSK9 on LDL uptake (Exopolar assay) (human PCSK9 [2]): 13 nM
Kd (human PCSK9 [5]): 5.2 nM

B17: AX194 Fab (Fab, V domains shown)
VH: B1 VH
VL: B4 VL with I21T, D28A, S96G, G97A
Kd (human PCSK9 [5]): 6.1 nM

B18: AX421 Fab (Fab, V domains shown)
VH: B1 VH with G56E
VL: B4 VL
notes: also called AX189_VH 56G to E
Kd (human PCSK9 [5]): 6.7 nM

B19: AX196 Fab (Fab, V domains shown)
VH: B1 VH
VL: B4 VL with M4I, T34A, Q89E, A90S, G97H
Kd (human PCSK9 [5]): 18.3 nM

B20: AX189 Fab (Fab, V domains shown)
VH: B1 VH
VL: B1 VL with S28D, A34T, E89Q, S95L, G96S, P97G, W98Y
notes: The heavy chain is the Fd chain
Fab IC50 (nM), inhibition of PCSK9 on LDL uptake (Exopolar assay) (human PCSK9 [2]): 31 nM
Kd (human PCSK9 [5]): 6.3 nM

B21: AX193 Fab (Fab, V domains shown)
VH: B1 VH
VL: B4 VL with D28A, V29I, R31K, T34N, Q89E, A90S, S96G, G97R
Kd (human PCSK9 [5]): 7 nM

B22: AX114 IgG2 (antibody, V domains shown)
VH: EVQLLESGGGLVQPGGSLRLSCKASGYTFSSYGMYWVRQAPGKGLEWIGWIDPGSGGTKYNEKFKGKATISRDNSKNTLYLQMNSLRAEDTAVYYCARERYGYYFDYWGQGTLVTVSS
VL: EIVLTQSPATLSLSPGERATITCRASQYVGTYLNWYQQKPGQAPRLLIYDASNRATGIPARFSGSGSGTDFTLTISSLEPEDFAVYYCQVWDSSPPVAFGGGTKVEIK
Kd (rhesus PCSK9 (rhesus) [7]): 11.6 nM
Kd (mouse PCSK9): 11.2 nM
Kd (human PCSK9 [8]): 24 nM

B23: AX132 IgG2 (antibody, from another filing, V domains shown)
VH: B22 VH
VL: EIVLTQSPATLSLSPGERATITCRASQYVGSYLNWYQQKPGQAPRLLIYDASNRATGIPARFSGSGSGTDFTLTISSLEPEDFAVYYCQVWDSSPPVVFGGGTKVEIKR
Kd (rhesus PCSK9 (rhesus) [7]): 2.59 nM
